These results are taken from publication PMC5915145, “CNPY2 inhibits MYLIP-mediated AR protein degradation in prostate cancer cells” (Oncotarget, 2018).

In the test the target is T1, recombinant UBE2D1-His (UniProt P51668 1-147).
T1 construct: UBE2D1 (UbcH5a), E2 ubiquitin conjugating enzyme; The methods of the pull-down call it UBE2D-His; also called UBE2D-His; source: E. coli, recombinant (pET29a (+) or pGEX4T1 vector); purification not described; not shown: His, C-terminal, kept
The test is described as follows: pull-down; GST-RING (8 ug) on Glutathione Sepharose beads with recombinant UBE2D-His (5 ug) or immunoprecipitated FLAG-CNPY2 (5 or 15 ug), 4 C, 30 min; 50 mM Tris-HCl pH 7.5, 150 mM NaCl, 5 mM EDTA, 0.5% NP40; immunoblotting. The conditions noted are these: both partners purified.

T1 sequence (P51668 whole entry): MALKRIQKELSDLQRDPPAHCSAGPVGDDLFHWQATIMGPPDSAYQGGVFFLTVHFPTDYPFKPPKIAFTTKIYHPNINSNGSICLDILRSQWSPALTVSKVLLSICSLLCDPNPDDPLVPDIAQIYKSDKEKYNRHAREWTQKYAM

B1: recombinant GST-fused RING domain of MYLIP (344-445 a.a.) (domain or fragment, UniProt Q8WY64 344-445, looked up)
chain: QSPSHSPLKSSESSMNCSSCEGLSCQQTRVLQEKLRKLKEAMLCMVCCEEEINSTFCPCGHTVCCESCAAQLQSCPVCRSRVEHVQHVYLPTHTSLLNLTVI
notes: MYLIP, RING domain, residues 344-445; Held on Glutathione Sepharose beads in the pull-down; pGEX4T1 vector); also called GST-RING; MYLIP RING; source: E. coli BL21 (DE3), purified (Glutathione Sepharose, eluted with 40 mM reduced glutathione); not shown: GST, N-terminal, kept
As for B1, the binding result was “binds”.
